Data from patent publication US20210277109A1 (SYSTIMMUNE, published 2021).

B1: 330F11 (antibody, V domains shown)
VH: QSVEESGGRLVTPGTPLTLTCTVSGFSLNNYWMSWVRQAPGEGLEWIGTISSGAYTWFATWATGRFTISKTSTTVDLSITSPTTEDTATYFCARYSSTTDWTYFNIWGPGTLVTVSS
VL: DVVMTQTPASVEAAVGGTVTIKCQASQSINNYLAWYQQKPGQPPKLLIYRASTLESGVPSRFKGSGSGTQFTLTISDLECADAATYYCQSYNGVGRTAFGGGTEVEFK
notes: chimeric counterpart m9; also called rabbit IgG of BCC well 330F11
B2: 323H7 (antibody, V domains shown)
VH: QEQLKESGGGLVTPGGTLTLTCTASGFTISRYHMTWVRQAPGKGLEWIGHIYVNNDDTDYASWAKGRFTISKTSTTVDLKITSPTTEDTATYFCARLDVGGGGAYIGDIWGQGTLVTVSS
VL: QAVVTQTPSSVSAAVGGTVTISCQSSQSVYNNNDLAWYQQKPGQPPKLLIYYASTLASGVSSRFKGSGSGTQFTLAISDLECDDSATYYCAGGYDTDGLDTFAFGGGTEVEVK
notes: chimeric counterpart m3; also called rabbit IgG of BCC well 323H7
B3: 324C7 (antibody, V domains shown)
VH: QSVEESGGRLVTPGTPLTLTCTVSGFSLSGAGVSWVRQAPGKGLEWIGYIDSGATTYYASWAKGRFTISKASTTVDLKIASPTTEDTATYFCARGYYGMDPWGQGTLVTVSS
VL: DIVMTQTPASVEVAVGGTVTIKCQASQNIGSDLAWYQQKPGQPPKLLIYTTSNLASGVPSRFKGSGSGTGFTLTISDLECADAASYCCQGGYFSGRNIYGNAFGGGTEVVVK
notes: chimeric counterpart m4; also called rabbit IgG of BCC well 324C7
B4: 323D10 humanized antibody (antibody, human IgG1, kappa, V domains shown)
VH: EVQLVESGGGLVQPGGSLRLSCTASGFSLSRNAMNWVRQAPGKGLEYIGYISTSGTTFYANSVKGRFTISKDNTKNTVDLQMNSLRAEDTAVYYCARDYNYAMDIWGQGTLVTVSS
VL: AIDLTQSPSTLSASVGGTITINCQASESISSWLAWYQQKPGKAPKLLIYETSKLASGVPSRFSGSGSGTEFTLTISSLQPDDFATYYCQSYYRINNIGYDNAFGGGTKVEIKR
notes: Human gamma-1 and human kappa constant domains
B5: 338H4 humanized antibody (antibody, human IgG1, kappa, V domains shown)
VH: EVQLVESGGGLVQPGGSLRLSCTASGFSLSSYAMSWVRQAPGRGLEWIGIIYASGSTYYASSAKGRFTISKDNTKNTVDLQMNSLRAEDTAVYYCARIYDGMDLWGQGTLVTVSS
VL: DIQMTQSPSSLSASVGDRVTINCQASQNIYSYLSWYQQKPGKVPKRLIYLASTLASGVPSRFSGSGSGTDYTLTISSLQPEDVATYYCQSNYNGNYGFGGGTKVEIKR
notes: as for B4
B6: 324C6 humanized antibody (antibody, human IgG1, kappa, V domains shown)
VH: QSLVESGGGLVQPGGSLRLSCTASGFSLSRYYMTWVRQAPGKGLEWIGTIYTSGSTWYASWTKGRFTISKDNTKNTVDLQMNSLRAEDTAVYYCARSYYGGDKTGLGIWGQGTLVTVSS
VL: DIQMTQSPSTLSASVGDRVTITCQASQSIDSWLSWYQQKPGKAPKLLIYQASTLASGVPSRFSGSGSGTEFTLTISSLQPDDFATYYCQSAYGVSGTSSYLYTFGGGTKVEIKR
notes: as for B4
B7: 323H7 humanized antibody (antibody, human IgG1, kappa, V domains shown)
VH: EVQLLESGGGLVQPGGSLRLSCAASGFTISRYHMTWVRQAPGKGLEWIGHIYVNNDDTDYASSAKGRFTISRDNSKNTLYLQMNSLRAEDTATYFCARLDVGGGGAYIGDIWGQGTLVTVSS
VL: DIQMTQSPSSLSASVGDRVTITCQSSQSVYNNNDLAWYQQKPGKVPKLLIYYASTLASGVPSRFSGSGSGTDFTLTISSLQPEDVATYYCAGGYDTDGLDTFAFGGGTKVEIKR
notes: as for B4
B8: 226E12 humanized antibody (antibody, human IgG1, kappa, V domains shown)
VH: EVQLLESGGGLVQPGGSLRLSCAASGFSLSNYYMSWVRQAPGKGLEWIGAINADSDNTWYPSWVKGRFTISRDNSKNTLYLQMNSLRAEDTAVYYCARSVSNNFAEYNIWGQGTLVTVSS
VL: DIQMTQSPSSLSASVGDRVTITCQASQRIYSYLAWYQQKPGKVPKLLIYRASTLASGVPSRFSGSGSGTDFTLTISSLQPEDVATYYCQQGASMVDVENMFGGGTKVEIKR
notes: as for B4
B9: 324E2 humanized antibody (antibody, human IgG1, kappa, V domains shown)
VH: QSVEESGGGLVQPGGSLRLSCTASGFSLSNNAITWVRQAPGKGLEYIGIISSSGTTYYASSAKGRFTISKDTSKNTVDLQMNSLRAEDTAVYYCAGAFSVWGQGTLVTVSS
VL: DIQMTQSPSSLSASVGDRVTITCQSSQSVNNNDLAWYQQKPGKAPKRLIYWASKLASGVPSRFSGSGSGTEFTLTISNLQPEDFATYYCAGGYSGNIYGFGGGTKVEIKR
notes: as for B4
B10: 330F11 humanized antibody (antibody, human IgG1, kappa, V domains shown)
VH: EVQLVESGGGLVQPGGSLRLSCAASGFSLNNYWMSWVRQAPGKGLEWIGTISSGAYTWFATWATGRFTISRDNSKNTLYLQMNSLRAEDTAVYYCARYSSTTDWTYFNIWGQGTLVTVSS
VL: DIQMTQSPSTLSASVGDRVTITCQASQSINNYLAWYQQKPGKAPKLLIYRASTLESGVPSRFSGSGSGTEFTLTISSLQPDDFATYYCQSYNGVGRTAFGGGTKVEIKR
notes: as for B4
B11: 338H4 chimeric rabbit/human IgG antibody (antibody, V domains shown)
VH: QSVEESGGRLVTPGTPLTLTCTVSGFSLSSYAMSWVRQAPGRGLEWIGIIYASGSTYYASWAKGRFTISKTSTTVDLKITSPTTEDTATYFCARIYDGMDLWGPGTLVTVSS
VL: DIVMTQTPASVSAAVGGTVTINCQASQNIYSYLSWYQQKPGQPPKRLIYLASTLASGVPSRFKSSGSGTEYTLTISDLECDDAATYYCQSNYNGNYGFGGGTEVEVKR
notes: Rabbit variable regions on human gamma-1 and human kappa constant domains
B12: 338H4 (antibody, V domains shown)
VH: B11 VH
VL: DIVMTQTPASVSAAVGGTVTINCQASQNIYSYLSWYQQKPGQPPKRLIYLASTLASGVPSRFKSSGSGTEYTLTISDLECDDAATYYCQSNYNGNYGFGGGTEVEVK
notes: chimeric counterpart m8; also called rabbit IgG of BCC well 338H4
B13: 324C6 (antibody, V domains shown)
VH: QSLEESGGRLVTPGTPLTLTCTASGFSLSRYYMTWVRQAPGKGLEWIGTIYTSGSTWYASWTKGRFTISKTSTTVDLKITSPTTEDTATYFCARSYYGGDKTGLGIWGPGTLVTVSS
VL: DVVMTQTPASVEAAVGGTVTIKCQASQSIDSWLSWYQQKPGQPPKLLIYQASTLASGVSSRFKGSGSGTEFTLTISDLECADAATYYCQCAYGVSGTSSYLYTFGGGTEVEVK
notes: chimeric counterpart m7; also called rabbit IgG of BCC well 324C6
B14: 323D10 chimeric rabbit/human IgG antibody (antibody, V domains shown)
VH: QSVEESGGRLVTPGTPLTLTCTVSGFSLSRNAMNWVRQAPGKGLEYIGYISTSGTTFYANWVKGRFTISKTSTTVDLKMTSLTTEDTATYFCARDYNYAMDIWGQGTLVTVSS
VL: AIDLTQTPASVEAAVGGTITINCQASESISSWLAWYQQKPGQRPKLLIYETSKLASGVPPRFSGSGSGTQFTLTISGVQCDDAATYYCQSYYRINNIGYDNAFGGGTEVEFKR
notes: as for B11
B15: 324E2 chimeric rabbit/human IgG antibody (antibody, V domains shown)
VH: QSVEESGGRLVTPGTPLTLTCTVSGFSLSNNAITWVRQAPGKGLEYIGIISSSGTTYYASWAKGRFTISKTSSTTVDLKMTSLTTEDTATYFCAGAFSVWGPGTLVTVSS
VL: AQVLTQTPSSVSAAVGGTVTINCQSSQSVNNNDLAWFQQKPGQPPKRLIYWASKLASGVPSRFKGSGSGTQFILTISDLECDDAATYYCAGGYSGNIYGFGGGTEVEVKR
notes: as for B11
B16: 324C6 chimeric rabbit/human IgG antibody (antibody, V domains shown)
VH: B13 VH
VL: DVVMTQTPASVEAAVGGTVTIKCQASQSIDSWLSWYQQKPGQPPKLLIYQASTLASGVSSRFKGSGSGTEFTLTISDLECADAATYYCQCAYGVSGTSSYLYTFGGGTEVEVKR
notes: as for B11

Target: T1, Human ROR1-CHO cells (human, UniProt Q01973)
T1 construct: expressed on the surface of CHO cells; also called human ROR1 on CHO cells
T1 sequence (Q01973 30-937 limits assumed): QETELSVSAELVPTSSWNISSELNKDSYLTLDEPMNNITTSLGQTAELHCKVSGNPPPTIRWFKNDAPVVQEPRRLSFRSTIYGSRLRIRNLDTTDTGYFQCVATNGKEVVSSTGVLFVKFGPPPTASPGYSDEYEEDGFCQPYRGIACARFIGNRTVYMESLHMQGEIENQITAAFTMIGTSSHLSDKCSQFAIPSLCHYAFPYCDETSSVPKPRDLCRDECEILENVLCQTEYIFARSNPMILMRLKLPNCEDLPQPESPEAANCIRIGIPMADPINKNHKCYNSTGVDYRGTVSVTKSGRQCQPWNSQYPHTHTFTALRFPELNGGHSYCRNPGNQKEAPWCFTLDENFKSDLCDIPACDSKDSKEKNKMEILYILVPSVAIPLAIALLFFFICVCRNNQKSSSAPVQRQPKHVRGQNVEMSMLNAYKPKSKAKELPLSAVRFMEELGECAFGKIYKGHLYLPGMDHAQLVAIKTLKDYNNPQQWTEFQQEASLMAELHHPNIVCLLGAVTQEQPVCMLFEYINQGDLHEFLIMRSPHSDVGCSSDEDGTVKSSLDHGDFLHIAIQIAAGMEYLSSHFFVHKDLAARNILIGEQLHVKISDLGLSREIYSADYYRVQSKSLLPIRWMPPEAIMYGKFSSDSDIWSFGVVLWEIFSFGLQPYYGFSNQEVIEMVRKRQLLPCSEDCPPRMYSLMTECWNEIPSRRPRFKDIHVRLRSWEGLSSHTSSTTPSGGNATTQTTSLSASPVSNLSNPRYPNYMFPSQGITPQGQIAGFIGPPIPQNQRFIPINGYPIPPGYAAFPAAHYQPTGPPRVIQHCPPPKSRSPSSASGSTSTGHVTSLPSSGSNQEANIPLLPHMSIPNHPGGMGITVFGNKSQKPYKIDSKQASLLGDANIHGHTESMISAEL
Experiment: FACS; BCC supernatant

Point of comparison: B1, “FACS MFI” value 5 MFI. Against it:
- B2 — higher, 90 MFI
- B3 — higher, 190 MFI

Target: T2, recombinant human ROR1 extracellular domain protein (human, UniProt Q01973 30-406)
T2 construct: extracellular domain; Analyte in solution in the Octet assay; also called human ROR1 ECD
T2 sequence (Q01973 30-406): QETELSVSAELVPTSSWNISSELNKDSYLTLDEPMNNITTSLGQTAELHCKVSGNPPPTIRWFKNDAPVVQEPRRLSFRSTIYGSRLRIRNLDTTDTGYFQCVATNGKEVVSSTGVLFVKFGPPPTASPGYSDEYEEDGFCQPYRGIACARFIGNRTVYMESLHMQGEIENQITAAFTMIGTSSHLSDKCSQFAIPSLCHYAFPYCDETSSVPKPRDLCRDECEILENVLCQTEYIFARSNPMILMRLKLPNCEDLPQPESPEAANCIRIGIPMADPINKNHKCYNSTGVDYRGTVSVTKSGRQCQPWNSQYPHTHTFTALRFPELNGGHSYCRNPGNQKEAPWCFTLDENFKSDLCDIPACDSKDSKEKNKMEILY
Experiment: Octet, monovalent binding to human ROR1

Point of comparison: B7, koff 0.0007 s⁻¹. Against it:
- B4 — 6.1-fold higher, 0.00424 s⁻¹
- B5 — 3.4-fold higher, 0.00238 s⁻¹
- B6 — 58-fold higher, 0.0403 s⁻¹
- B8 — 59-fold higher, 0.0415 s⁻¹
- B9 — 8.7-fold higher, 0.0061 s⁻¹
- B10 — 42-fold higher, 0.0297 s⁻¹

Target: T2, recombinant human ROR1 extracellular …
Experiment: Octet, mono-valent binding to human ROR1
Description: The heavy and light chain expression plasmids generated from each well were transiently co-transfected to produce rabbit/human chimeric antibodies. Recombinant antibody supernatants were confirmed to contain anti-ROR1 antibodies using bio-layer interferometry analysis on a ForteBio Octet Red 96 instrument. Anti-human Fc biosensors (Pall ForteBio) were used to capture antibodies in the supernatants. Association to ROR1 was observed by real-time interferometry by placing the biosensors in wells containing recombinant human ROR1 extracellular domain protein. Dissociation was measured after transfer of the biosensors into wells containing 10× kinetics buffer (Pall ForteBio). The software provided by the manufacturer was used to analyze the interferometry data.

B11 was tested, and the koff was 1.17e-08 s⁻¹.

Target: T3, human ROR1 'Ig-Frizzled domain' (human, UniProt Q01973)
T3 construct: used plain or biotinylated
T3 sequence (Q01973 30-305 limits assumed): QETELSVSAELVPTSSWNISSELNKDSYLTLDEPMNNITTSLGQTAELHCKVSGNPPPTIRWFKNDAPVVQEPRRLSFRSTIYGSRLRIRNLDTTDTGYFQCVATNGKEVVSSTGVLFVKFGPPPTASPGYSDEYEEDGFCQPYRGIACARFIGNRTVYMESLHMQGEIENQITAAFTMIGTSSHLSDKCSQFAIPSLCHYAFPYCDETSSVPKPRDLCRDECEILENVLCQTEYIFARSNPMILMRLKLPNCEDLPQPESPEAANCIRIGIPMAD
Experiment: ELISA, biotinylated antigen on avidin plate; BCC supernatant

Point of comparison: B1, “ELISA OD450” value 0.15 OD450. Against it:
- B12 — higher, 0.22 OD450
- B2 — higher, 1.78 OD450
- B3 — higher, 2.67 OD450

Target: T4, human ROR1 'Frizzled-Kringle domain' (human, UniProt Q01973)
T4 construct: used plain or biotinylated
T4 sequence (Q01973 165-406 limits assumed): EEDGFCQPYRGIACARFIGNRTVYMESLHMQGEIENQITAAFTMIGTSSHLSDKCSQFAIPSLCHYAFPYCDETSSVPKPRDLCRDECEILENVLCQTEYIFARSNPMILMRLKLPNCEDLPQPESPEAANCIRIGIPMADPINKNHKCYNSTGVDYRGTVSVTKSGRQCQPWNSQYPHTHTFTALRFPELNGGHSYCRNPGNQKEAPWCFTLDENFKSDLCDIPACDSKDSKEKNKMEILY
Experiment: as above

Point of comparison: B3, “ELISA OD450” value 0.13 OD450. Against it:
- B1 — higher, 1.71 OD450
- B12 — higher, 1.8 OD450
- B2 — higher, 0.16 OD450

Target: T3, human ROR1 'Ig-Frizzled domain'
Experiment: ELISA, direct coat; BCC supernatant

Point of comparison: B12, “ELISA OD450” value 2.77 OD450. Against it:
- B1 — lower, 0.28 OD450
- B2 — lower, 1.67 OD450
- B3 — lower, 2.46 OD450

Target: T4, human ROR1 'Frizzled-Kringle domain'
Experiment: ELISA, direct coat; BCC supernatant

Point of comparison: B12, “ELISA OD450” value 3.01 OD450. Against it:
- B1 — lower, 1.98 OD450
- B2 — lower, 0.16 OD450
- B3 — lower, 0.13 OD450

Target: T2, recombinant human ROR1 extracellular …
Experiment: ELISA, direct coat; BCC supernatant

Point of comparison: B3, “ELISA OD450” value 2.74 OD450. Against it:
- B1 — lower, 0.98 OD450
- B12 — higher, 4 OD450
- B2 — lower, 1.82 OD450

Target: mouse ROR1 (serum titer ELISA antigen) (mouse, UniProt Q9Z139 30-403, limits assumed)
Sequence (Q9Z139 30-403 limits assumed): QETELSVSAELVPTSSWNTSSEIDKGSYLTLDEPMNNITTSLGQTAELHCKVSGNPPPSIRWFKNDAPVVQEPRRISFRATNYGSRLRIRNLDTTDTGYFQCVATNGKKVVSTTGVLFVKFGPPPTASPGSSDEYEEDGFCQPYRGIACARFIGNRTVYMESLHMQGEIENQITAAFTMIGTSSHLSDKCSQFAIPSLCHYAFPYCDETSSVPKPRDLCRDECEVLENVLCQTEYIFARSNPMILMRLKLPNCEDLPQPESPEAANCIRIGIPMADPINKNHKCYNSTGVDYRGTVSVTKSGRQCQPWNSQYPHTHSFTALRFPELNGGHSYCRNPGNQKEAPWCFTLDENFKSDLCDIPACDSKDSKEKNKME
Experiment: ELISA, direct coat; BCC supernatant

Point of comparison: B3, “ELISA OD450” value 0.21 OD450. Against it:
- B1 — higher, 4 OD450
- B12 — higher, 4 OD450
- B2 — lower, 0.2 OD450

B2: no binding.
B3: no binding.

Target: T5, Human ROR2 (human, UniProt Q01974)
T5 sequence (Q01974 34-403 limits assumed): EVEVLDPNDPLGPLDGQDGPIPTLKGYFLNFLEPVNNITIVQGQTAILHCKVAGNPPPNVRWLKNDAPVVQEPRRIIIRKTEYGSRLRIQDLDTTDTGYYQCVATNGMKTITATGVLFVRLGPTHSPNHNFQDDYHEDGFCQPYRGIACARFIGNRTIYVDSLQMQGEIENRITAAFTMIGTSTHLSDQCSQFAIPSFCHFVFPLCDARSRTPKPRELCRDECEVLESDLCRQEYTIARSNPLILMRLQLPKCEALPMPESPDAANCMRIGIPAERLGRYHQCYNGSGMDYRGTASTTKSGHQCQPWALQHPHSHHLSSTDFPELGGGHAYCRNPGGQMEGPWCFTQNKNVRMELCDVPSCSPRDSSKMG
Experiment: ELISA, direct coat; BCC supernatant

Point of comparison: B1, “ELISA OD450” value 0.25 OD450. Against it:
- B12 — lower, 0.17 OD450
- B2 — lower, 0.18 OD450
- B3 — lower, 0.18 OD450
- B13 — lower, 0.17 OD450

Target: T2, recombinant human ROR1 extracellular …
Experiment: Octet, bi-valent binding to human ROR1

Point of comparison: B15, koff 0.00572 s⁻¹. Against it:
- B14 — 1.7-fold higher, 0.00961 s⁻¹

Target: T4, human ROR1 'Frizzled-Kringle domain'
Experiment: Octet

B14: no binding.
B15: no binding.

Target: T5, Human ROR2
Experiment: Octet

B11: no binding.
B16: no binding.
B14: no binding.
B15: no binding.
